This is an account of results in patent US20220363770A1 (Amgen, published 2022).

One may read the IC50 as the midpoint of a concentration-inhibition curve. High values mean weaker potency, low ones greater potency.

Substitutions are numbered along the chain they refer to.

T1: human PAC1 receptor (human, UniProt P41586 24-468)
T1 sequence: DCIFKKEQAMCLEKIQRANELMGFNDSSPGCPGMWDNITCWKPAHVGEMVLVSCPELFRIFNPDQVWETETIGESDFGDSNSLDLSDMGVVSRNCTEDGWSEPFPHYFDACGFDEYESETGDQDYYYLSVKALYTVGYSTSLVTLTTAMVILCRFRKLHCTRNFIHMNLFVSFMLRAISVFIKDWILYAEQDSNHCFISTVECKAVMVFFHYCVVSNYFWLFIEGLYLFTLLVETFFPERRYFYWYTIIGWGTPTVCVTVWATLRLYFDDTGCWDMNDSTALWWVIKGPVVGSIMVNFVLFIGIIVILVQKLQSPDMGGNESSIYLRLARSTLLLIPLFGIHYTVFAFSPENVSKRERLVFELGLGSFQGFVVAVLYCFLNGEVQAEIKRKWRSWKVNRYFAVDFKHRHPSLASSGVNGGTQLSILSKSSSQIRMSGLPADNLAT

B1: iPS:454841 (bispecific antibody, human IgG1, kappa, lambda, N297G)
light 1: QSVLTQPPSVSAAPGQKVTISCSGSRSNIGIKAVSWYQQLPGTAPKLLIYDNNKRPSGIPDRFSGSKSGTSATLGITGLQTGDEADYYCGTWDSRLSAVVFGGGTKLTVLGQPKAAPSVTLFPPSSEELQANKATLVCLISDFYPGAVTVAWKADSSPVKAGVETTTPSKQSNNKYAAKSYLSLTPEQWKSHRSYSCQVTHEGSTVEKTVAPTECS
heavy 1: QVQLVESGGGVVQPGRSLRLSCAASGFTFSSFGMHWVRQAPGKGLEWVAVISFDGSIKYSVDSVKGRFTISRDNSKNTLFLQMNSLRAEDTAVYYCARDRLNYYESSGYYHYKYYGMAVWGQGTTVTVSSASTKGPSVFPLAPSSKSTSGGTAALGCLVKDYFPEPVTVSWNSGALTSGVHTFPAVLQSSGLYSLESVVTVPSSSLGTQTYICNVNHKPSNTKVDKKVEPKSCDKTHTCPPCPAPELLGGPSVFLFPPKPKDTLMISRTPEVTCVVVDVSHEDPEVKFNWYVDGVEVHNAKTKPCEEQYGSTYRCVSVLTVLHQDWLNGKEYKCKVSNKALPAPIEKTISKAKGQPREPQVYTLPPSRKKMTKNQVSLTCLVKGFYPSDIAVEWESNGQPENNYKTTPPVLKSDGSFFLYSKLTVDKSRWQQGNVFSCSVMHEALHNHYTQKSLSLSPGK
light 2: EIVLTQSPATLSLSPGERATLSCRASKSVGWSLHWYQQKPGQAPRLLIKYASQSLSGIPARFSGSGSGTDFTLTISSLEPEDFAVYYCHQSSRLPFTFGPGTKVDIKRTVAAPSVFIFPPSDEQLKSGTASVVCLLNNFYPREAKVQWKVDNALQSGNSQESVTEQDSKDSTYSLESTLTLSKADYEKHKVYACEVTHQGLSSPVTKSFNRGEC
heavy 2: not shown
B2: iPS:454849 (bispecific antibody, human IgG1, kappa, lambda, N297G)
light 1: B1 light 1
heavy 1: B1 heavy 1
light 2: B1 light 2
heavy 2: not shown
B3: iPS:454877 (bispecific antibody, human IgG1, kappa, lambda, N297G)
light 1: B1 light 1 with R26S, I31N, K32N, A33Y, A72T
heavy 1: B1 heavy 1 with E105R, S107F, H111G, K113H
light 2: B1 light 2 with W31R
heavy 2: not shown
B4: iPS:454851 (bispecific antibody, human IgG1, kappa, lambda, N297G)
light 1: B1 light 1
heavy 1: B1 heavy 1
light 2: B1 light 2
heavy 2: not shown
B5: iPS:454847 (bispecific antibody, human IgG1, kappa, lambda, N297G)
light 1: B1 light 1
heavy 1: B1 heavy 1
light 2: B1 light 2
heavy 2: not shown
B6: iPS:454857 (bispecific antibody, human IgG1, kappa, lambda, N297G)
light 1: B1 light 1 with R26S, I31N, K32N, A33Y, A72T
heavy 1: B1 heavy 1 with E105R, S107F, H111G, K113H
light 2: B1 light 2 with W31Q
heavy 2: not shown
B7: iPS:454845 (bispecific antibody, human IgG1, kappa, lambda, N297G)
light 1: B1 light 1
heavy 1: B1 heavy 1
light 2: B1 light 2
heavy 2: not shown
B8: iPS:454861 (bispecific antibody, human IgG1, kappa, lambda, N297G)
light 1: B1 light 1 with R26S, I31N, K32N, A33Y, A72T
heavy 1: B1 heavy 1 with E105R, S107F, H111G, K113H
light 2: B1 light 2 with K27R, W31L, S32A, R93F
heavy 2: not shown
B9: iPS:454873 (bispecific antibody, human IgG1, kappa, lambda, N297G)
light 1: B1 light 1 with R26S, I31N, K32N, A33Y, A72T
heavy 1: B1 heavy 1 with E105R, S107F, H111G, K113H
light 2: B1 light 2 with S28A, W31F, R93F
heavy 2: not shown
B10: iPS:454871 (bispecific antibody, human IgG1, kappa, lambda, N297G)
light 1: B1 light 1 with R26S, I31N, K32N, A33Y, A72T
heavy 1: B1 heavy 1 with E105R, S107F, H111G, K113H
light 2: B1 light 2 with W31Q
heavy 2: not shown
B11: iPS:454859 (bispecific antibody, human IgG1, kappa, lambda, N297G)
light 1: B1 light 1 with R26S, I31N, K32N, A33Y, A72T
heavy 1: B1 heavy 1 with E105R, S107F, H111G, K113H
light 2: B1 light 2 with S28A, G30W, W31H, S32N, R93M
heavy 2: not shown
B12: iPS:454875 (bispecific antibody, human IgG1, kappa, lambda, N297G)
light 1: B1 light 1 with R26S, I31N, K32N, A33Y, A72T
heavy 1: B1 heavy 1 with E105R, S107F, H111G, K113H
light 2: EIVLTQSPATLSLSPGERATLSCRASRAVSNLHWYQQKPGQAPRLLIKYASQSLSGIPARFSGSGSGTDFTLTISSLEPEDFAVYYCHQSSYLPFTFGPGTKVDIKRTVAAPSVFIFPPSDEQLKSGTASVVCLLNNFYPREAKVQWKVDNALQSGNSQESVTEQDSKDSTYSLESTLTLSKADYEKHKVYACEVTHQGLSSPVTKSFNRGEC
heavy 2: not shown
B13: iPS:454865 (bispecific antibody, human IgG1, kappa, lambda, N297G)
light 1: B1 light 1 with R26S, I31N, K32N, A33Y, A72T
heavy 1: B1 heavy 1 with E105R, S107F, H111G, K113H
light 2: B1 light 2 with W31Q
heavy 2: not shown
B14: iPS:454869 (bispecific antibody, human IgG1, kappa, lambda, N297G)
light 1: B1 light 1 with R26S, I31N, K32N, A33Y, A72T
heavy 1: B1 heavy 1 with E105R, S107F, H111G, K113H
light 2: B1 light 2 with W31Q
heavy 2: not shown
B15: iPS:454843 (bispecific antibody, human IgG1, kappa, lambda, N297G)
light 1: B1 light 1
heavy 1: B1 heavy 1
light 2: B1 light 2
heavy 2: not shown
B16: iPS:454867 (bispecific antibody, human IgG1, kappa, lambda, N297G)
light 1: B1 light 1 with R26S, I31N, K32N, A33Y, A72T
heavy 1: B1 heavy 1 with E105R, S107F, H111G, K113H
light 2: B1 light 2
heavy 2: not shown
B17: iPS:454863 (bispecific antibody, human IgG1, kappa, lambda, N297G)
light 1: B1 light 1 with R26S, I31N, K32N, A33Y, A72T
heavy 1: B1 heavy 1 with E105R, S107F, H111G, K113H
light 2: B1 light 2 with W31Q
heavy 2: not shown
B18: iPS:454855 (bispecific antibody, human IgG1, kappa, lambda, N297G)
light 1: B1 light 1
heavy 1: B1 heavy 1
light 2: B1 light 2 with W31Y
heavy 2: not shown
B19: iPS:454853 (bispecific antibody, human IgG1, kappa, lambda, N297G)
light 1: B1 light 1
heavy 1: B1 heavy 1
light 2: B1 light 2
heavy 2: not shown

The first experiment deals with human CGRP receptor (human, UniProt Q16602 23-461; O60894 27-148). Nature of the experiment: cell-based or functional assay.
Sequence of human CGRP receptor (Q16602 23-461 limits assumed, chain 1 of 2): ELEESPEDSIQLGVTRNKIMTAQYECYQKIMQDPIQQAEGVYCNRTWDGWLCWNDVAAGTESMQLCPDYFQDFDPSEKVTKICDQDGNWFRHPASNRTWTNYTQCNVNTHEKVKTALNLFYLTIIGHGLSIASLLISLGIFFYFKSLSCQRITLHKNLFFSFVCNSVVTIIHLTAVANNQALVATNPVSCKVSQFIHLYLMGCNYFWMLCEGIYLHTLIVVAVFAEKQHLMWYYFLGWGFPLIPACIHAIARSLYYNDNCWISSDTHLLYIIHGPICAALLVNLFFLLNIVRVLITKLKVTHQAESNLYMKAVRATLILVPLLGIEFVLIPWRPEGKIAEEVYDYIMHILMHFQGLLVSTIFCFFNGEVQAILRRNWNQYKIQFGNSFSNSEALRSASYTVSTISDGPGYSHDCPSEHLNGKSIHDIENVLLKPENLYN
Sequence of human CGRP receptor (O60894 27-148 limits assumed, chain 2 of 2): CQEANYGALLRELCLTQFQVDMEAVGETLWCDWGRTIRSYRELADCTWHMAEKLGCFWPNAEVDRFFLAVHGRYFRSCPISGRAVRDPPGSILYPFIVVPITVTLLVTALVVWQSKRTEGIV
For B1, the “Fold-improvement over 4E4 Ab” value worked out at 1.4 fold and 0.46 nM corresponded to half-maximal inhibition (IC50).

On to B2, for which the “Fold-improvement over 4E4 Ab” value is 1.2 fold and the “IC50” value amounted to 0.55 nM.

Turning to B3, the “Fold-improvement over 4E4 Ab” value is 0.3 fold and the 50% inhibitory concentration (IC50) was 1.49 nM.

As for B4, the “Fold-improvement over 4E4 Ab” value stood at 1.8 fold and the “IC50” value worked out at 0.37 nM.

As to B5, the “Fold-improvement over 4E4 Ab” value came to 1.5 fold and the “IC50” value turned out to be 0.43 nM.

For B6, the “Fold-improvement over 4E4 Ab” value came to 0.5 fold and the half-maximal inhibitory concentration (IC50) amounted to 1.36 nM.

As to B7, the “Fold-improvement over 4E4 Ab” value is 1.7 fold and the “IC50” value was 0.4 nM.

Take B8: the “Fold-improvement over 4E4 Ab” value is 0.4 fold and the “IC50” value was determined as 1.54 nM.

For B9, the “Fold-improvement over 4E4 Ab” value amounted to 0.2 fold and the half-maximal inhibitory concentration (IC50) worked out at 2.13 nM.

On to B10, for which the “Fold-improvement over 4E4 Ab” value was 0.2 fold and the midpoint of inhibition, the IC50, lay at 2.3 nM.

B11: the “Fold-improvement over 4E4 Ab” value stood at 0.4 fold and half-maximal inhibition (IC50) was put at 1.5 nM.

In the case of B12, the “Fold-improvement over 4E4 Ab” value amounted to 0.3 fold and inhibition was half-maximal at 1.7 nM (IC50).

With B13, the “Fold-improvement over 4E4 Ab” value worked out at 0.4 fold and it took 1.59 nM to reach half-maximal inhibition (IC50).

Regarding B14, the “Fold-improvement over 4E4 Ab” value was 0.4 fold and inhibition was half-maximal at 1.65 nM (IC50).

Consider B15, for which the “Fold-improvement over 4E4 Ab” value turned out to be 1.6 fold and 0.42 nM corresponded to half-maximal inhibition (IC50).

In the case of B16, the “Fold-improvement over 4E4 Ab” value came to 0.4 fold and inhibition was half-maximal at 1.55 nM (IC50).

For B17, the “Fold-improvement over 4E4 Ab” value was 0.4 fold and 1.5 nM corresponded to half-maximal inhibition (IC50).

Regarding B18, the “Fold-improvement over 4E4 Ab” value was found to be 1.4 fold and the “IC50” value was 0.46 nM.

Turning to B19, the “Fold-improvement over 4E4 Ab” value was 1.4 fold and 0.47 nM corresponded to half-maximal inhibition (IC50).

The target in a further experiment is T1, human PAC1 receptor. Kind of experiment: cell-based or functional assay.
For the molecule B1, the “Fold-improvement over 29G4v22 Ab” value amounted to 8.8 fold and it took 0.78 nM to reach half-maximal inhibition (IC50).

As for B2, the “Fold-improvement over 29G4v22 Ab” value amounted to 3.6 fold and the “IC50” value was 1.48 nM.

Consider B3, for which the “Fold-improvement over 29G4v22 Ab” value was determined as 7.2 fold and the “IC50” value stood at 0.8 nM.

Take B4: the “Fold-improvement over 29G4v22 Ab” value turned out to be 7.1 fold and the “IC50” value came out at 0.76 nM.

Consider B5, for which the “Fold-improvement over 29G4v22 Ab” value was determined as 6.7 fold and it took 0.8 nM to reach half-maximal inhibition (IC50).

With B6, the “Fold-improvement over 29G4v22 Ab” value amounted to 11.2 fold and 0.57 nM corresponded to half-maximal inhibition (IC50).

With B7, the “Fold-improvement over 29G4v22 Ab” value is 8.2 fold and the “IC50” value is 0.66 nM.

Consider B8, for which the “Fold-improvement over 29G4v22 Ab” value turned out to be 4.8 fold and the midpoint of inhibition, the IC50, lay at 1.34 nM.

For B9, the “Fold-improvement over 29G4v22 Ab” value is 4.4 fold and the “IC50” value was 1.32 nM.

For B10, the “Fold-improvement over 29G4v22 Ab” value is 3.3 fold and half-maximal inhibition (IC50) was put at 1.74 nM.

With B11, the “Fold-improvement over 29G4v22 Ab” value was found to be 3.3 fold and the “IC50” value was found to be 1.91 nM.

For the molecule B12, the “Fold-improvement over 29G4v22 Ab” value worked out at 1.9 fold and the “IC50” value came to 3 nM.

In the case of B13, the “Fold-improvement over 29G4v22 Ab” value is 3.9 fold and the half-maximal inhibitory concentration (IC50) stood at 1.63 nM.

As to B14, the “Fold-improvement over 29G4v22 Ab” value is 5.8 fold and 1.1 nM corresponded to half-maximal inhibition (IC50).

Turning to B15, the “Fold-improvement over 29G4v22 Ab” value was determined as 5.8 fold and half-maximal inhibition (IC50) was put at 0.93 nM.

B16: the “Fold-improvement over 29G4v22 Ab” value amounted to 6.5 fold and it took 0.98 nM to reach half-maximal inhibition (IC50).

In the case of B17, the “Fold-improvement over 29G4v22 Ab” value amounted to 4.5 fold and the “IC50” value came to 1.4 nM.

B18: the “Fold-improvement over 29G4v22 Ab” value is 6.6 fold and it took 0.81 nM to reach half-maximal inhibition (IC50).

On to B19, for which the “Fold-improvement over 29G4v22 Ab” value was 5.8 fold and inhibition was half-maximal at 0.93 nM (IC50).
